According to US20090238754A1, “USE OF PYRENE TO CARRY PEPTIDES ACROSS THE BLOOD BRAIN BARRIER” (Adlyfe, Inc., priority 2008, published 2009):
pyrene = pyrene label

Assays:
Assay type in all cases: in vivo
[1] = molecular target: T1, Aβ plaques (Homo sapiens, UniProt P05067); assay: Fluorescent labeling of Aβ plaques in brain after intranasal administration to hAPP transgenic mice (Example 2); settings: for fluorescent labeling of Aβ plaques (FIG. 1): three 10 μl injections at 20 minute intervals, sacrificed 6 hours later, hAPP transgenic mice
T1 construct: from tissue; host or cells: brain of living hAPP transgenic mice (in vivo dosing, brain sections imaged)
T1 sequence (P05067 672-713 limits assumed): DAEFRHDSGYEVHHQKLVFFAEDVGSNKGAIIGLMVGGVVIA
Experimental: Three groups of three hAPP transgenic mice were treated with vehicle (10% DMSO), the Aβ peptide-agent conjugate described above, or pyrene butyrate. Mice received three 10 μl injections at 20 minute intervals over a one hour period. Mice were sacrificed 6 hours later and tissues were collected. Flourescence in sagital sections was performed using fixed frozen tissue and a UV-2A fileter-equipped microscope. All plaque counts were performed on a digital images using Image-Pro-Plus software (Media Cybernetics, Inc., Bethesda, Md.).

[2] = molecular target: T1, Aβ plaques; assay: Intranasal administration of peptide agent conjugate to hAPP751SL transgenic mice and littermate controls, brain fluorescence imaging (Example 1)
Description: The following illustrates the ability of peptide agent conjugates to target Aβ plaques (e.g., insoluble self-aggregates of Aβ protein associated with Alheimer's disease) in vivo. A peptide agent specific for Aβ corresponding to residues 16-35 of the Aβ protein (SEQ ID NO:3) with an added C-terminal lysine residue (e.g., SEQ ID NO:5) for conjugating pyrene, and labeled at each terminus with pyrene is used.
In vivo studies use four homozygous hAPP751SL transgenic 10 month old mice and four littermate controls (siblings not carrying the transgene). The labeled peptide agent conjugate is administered intranasally, at 10 μl liquid per administration (at concentrations of from 0.1 to 2.0 mg/ml) with an administration interval of a planned half of an hour, adjusted according to the condition of the animal after treatment.
At the end of the treatment, mice are sacrificed and CSF and brains are extracted. (All mice are sedated by standard inhalation anaesthesia, Isofluran, Baxter).
Cerebrospinal fluid is obtained by blunt dissection and exposure of the foramen magnum. Upon exposure, a Pasteur pipette is inserted to the approximate depth of 0.3-1 mm into the foramen magnum. CSF is collected by suctioning and capillary action until flow fully ceases. CSF is immediately frozen and kept at −80° C. until use.
After CSF sampling, the stomach, stomach content and the brains are rapidly removed. Brains are hemisected, and the right hemisphere of all mice are immersion fixed in freshly produced 4% Paraformaldehyde/PBS (pH 7.4) for one hour at room temperature, and transferred to a 15% sucrose/PBS solution for 24 hours to ensure cryoprotection. Thereafter, brains are frozen in liquid isopentane on the next day and stored at −80° C. until used for histological investigations. The other brain half is immediately shock frozen in liquid isopentane for future use.
To assess the specifity of staining by the peptide agent conjugate, fluorescence is excited using a UV-2A and B-1E filter of a microscope to detect probable auto-fluorescence in the lower spectrum. […]

[3] = Clearance of conjugate determined by analysis of cerebrospinal fluid; settings: 6 hours post-administration; CSF revealed no evidence of circulating conjugate
Experimental: The rate of localization and clearance or degradation of a conjugate can be assessed experimentally, for example, by administering the conjugates to mice and sacrificing them for analysis at different times post-administration, such as at time periods including 2 minutes, 10 minutes, 30 minutes, 60 minutes, 1 hour, 2 hours, 3 hours, 4 hours, 5 hours, 6 hours, or longer, post-administration.

[4] = molecular target: T1, Aβ plaques; assay: Fluorescent labeling of Aβ plaques in brain after intravenous administration to hAPP transgenic mice (Example 3); settings: intravenous 30 mg/kg, tail vein, 6 hours after administration
Experimental: hAPP transgenic mice were administered the Aβ peptide-agent conjugate described above intravenously at a dose of 30 mg/kg through the tail vein. Mice were sacrificed at 6 hours after the administration of the conjugate, and brain sections were prepared for imaging as described above. After a section was imaged for conjugate fluorescence, it was bleached of fluorescence and stained with a Thioflavin S stain.

Substance | fluorescent labeling of Aβ plaques (FIG. 1) [1] | binding to amyloid in the brain ([2]; hAPP751SL transgenic mice) | localization and binding in the brain ([2]; nontransgenic mice) | crossing of the blood-brain barrier (BBB) ([2]; transgenic mice treated with the highest dose, brain images vs control mice and transgenic vehicle control) | correlation between conjugate fluorescence and Thioflavin S staining ([1]; hippocampus (data not shown)) | coincidence of conjugate fluorescence with 6E10 antibody and Thioflavin S plaque staining ([1]; sequential sagital brain sections, co-merged images) | clearance, as determined by analysis of cerebrospinal fluid [3] | correlation between conjugate fluorescence and Thioflavin S staining ([4]; cortex (FIG. 3A)) | correlation between conjugate fluorescence and Thioflavin S staining ([4]; hippocampus (FIG. 3B))
pyrene butyrate [reference compound] | did not |  |  |  |  |  |  |  | 
AD185: Peptide of residues 16-35 of the Aβ protein with added C-terminal lysine (SEQ ID NO:5), labeled at each terminus with pyrene (pyrene-KLVFFAEDVGSNKGAIIGLMK-pyrene) | showed fluorescent labeling of Aβ plaques | binds to the amyloid and agglomerates outside the blood vessel in the brain | reaches the olfactory bulb, but does not bind to a specifiable morphological structure | crosses the blood-brain barrier | positive correlation | coincided with the antibody and Thioflavin S plaque staining | cleared | significant correlation | significant correlation
